Results on 1 substance are retold here after patent US20260167693A1.

This experiment has as its target human CD19 (human) (UniProt P15391). The experiment is described as follows: cell-based or functional assay.

human CD19 (human), sequence (P15391 20-556): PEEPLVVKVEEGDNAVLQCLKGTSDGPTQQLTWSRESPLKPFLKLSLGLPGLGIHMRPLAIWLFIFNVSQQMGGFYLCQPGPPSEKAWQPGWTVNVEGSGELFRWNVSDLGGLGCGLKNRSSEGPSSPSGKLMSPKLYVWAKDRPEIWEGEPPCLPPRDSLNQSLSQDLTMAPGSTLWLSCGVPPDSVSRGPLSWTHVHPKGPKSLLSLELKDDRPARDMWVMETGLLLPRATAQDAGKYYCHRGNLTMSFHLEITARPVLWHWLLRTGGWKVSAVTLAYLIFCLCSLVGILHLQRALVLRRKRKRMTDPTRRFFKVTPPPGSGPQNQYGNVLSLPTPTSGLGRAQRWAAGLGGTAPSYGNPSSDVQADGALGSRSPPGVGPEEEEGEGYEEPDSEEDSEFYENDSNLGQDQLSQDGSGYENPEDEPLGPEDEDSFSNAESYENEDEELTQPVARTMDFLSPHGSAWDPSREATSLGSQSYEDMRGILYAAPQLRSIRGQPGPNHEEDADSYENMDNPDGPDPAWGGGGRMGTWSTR

The substance CD8SP-CD19BU12(vL-vH)-MYC-BBz-PAC displayed an NFAT-GFP (%) after overnight co-culture with RAJI cells of 30.2%.
